Reference: patent US20040043378A1

Molecular target: lysine-acetylated histone H4 peptide SGRGKGG-AcK-GLGK (Lys8 acetylated)
Assay: 15N-HSQC backbone amide chemical shift change upon binding to the AcK peptide

maximum weighted chemical shift difference (Tyr809): 0.16 ppm
Substance: bromodomain of P/CAF (residues 719-832 of SEQ ID NO:2) (from UniProt Q92831 719-832)
